From patent publication US6333178

Key:
[1] = molecular target: DNA polymerase II (Escherichia coli) (UniProt P21189)
[2] = molecular target: DNA polymerase I (Escherichia coli) (UniProt P00582)
[3] = molecular target: DNA polymerase III holoenzyme
[4] = molecular target: MBP-UmuC fusion protein (maltose binding protein fused to UmuC, DNA polymerase V) (Escherichia coli)

Substance | Cro- mutation frequency after gap-filling replication by pol II with UmuD', RecA, SSB (Cro- mutation frequency per gene) [1] | Cro- mutation frequency after gap-filling replication by pol I with UmuD', RecA, SSB (Cro- mutation frequency per gene) [2] | Cro- mutation frequency after gap-filling replication by pol III holoenzyme with UmuD', RecA, SSB (Cro- mutation frequency per gene) [3] | Cro- mutation frequency after in vitro gap-filling replication, RecA omitted (Cro- mutation frequency per gene) [4] | Cro- mutation frequency after in vitro gap-filling replication, SSB omitted (Cro- mutation frequency per gene) [4] | Cro- mutation frequency after in vitro gap-filling replication, UmuD' omitted (Cro- mutation frequency per gene) [4]
RecA (from UniProt P0A7G6) | 0.00065 | 0.00078 | 0.00081 | 0.00025 |  | 
SSB (single stranded DNA-binding protein) (from UniProt P0AGE0) | 0.00065 | 0.00078 | 0.00081 |  | 0.00051 | 
UmuD' (from UniProt P0AG11) | 0.00065 | 0.00078 | 0.00081 |  |  | 0.00027
